Source: article PMC6412114

Key:
[1] = target: T1, IDH1 (UniProt O75874 1-414); assay: EMSA
[2] = target: T1, IDH1; assay: EMSA; remark: listed apart in the source

T1 sequence (O75874 whole entry): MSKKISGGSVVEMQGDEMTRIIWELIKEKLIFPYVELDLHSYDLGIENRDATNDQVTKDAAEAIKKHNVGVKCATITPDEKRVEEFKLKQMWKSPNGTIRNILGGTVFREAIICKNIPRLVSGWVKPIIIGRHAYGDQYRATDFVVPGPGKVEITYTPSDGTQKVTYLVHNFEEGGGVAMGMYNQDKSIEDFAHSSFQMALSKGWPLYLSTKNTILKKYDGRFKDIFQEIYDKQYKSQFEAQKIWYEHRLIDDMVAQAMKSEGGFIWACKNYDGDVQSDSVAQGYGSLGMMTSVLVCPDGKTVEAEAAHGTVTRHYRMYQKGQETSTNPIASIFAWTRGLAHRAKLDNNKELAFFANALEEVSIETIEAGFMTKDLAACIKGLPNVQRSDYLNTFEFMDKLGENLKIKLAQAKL

Binder | binding result [1] | Kd [2] [nM]
GGATCCATTTATTTATTTATTTAAGCTTGG (ssDNA) [AU-rich ssDNA] | no binding | –
AU-rich dsDNA (dsDNA) DNA 1: GGATCCATTTATTTATTTATTTAAGCTTGG DNA 2: CCTAGGTTAAATAAATAAATAAATCGATCC | no binding | –
GGAUCCAUUUAUUUAUUUAUUUAAGCUUGG (ssRNA) [AU-rich ssRNA] | – | 680 ± 70
AU-rich dsRNA (dsRNA) RNA 1: GGAUCCAUUUAUUUAUUUAUUUAAGCUUGG RNA 2: CCUAGGUUAAAUAAAUAAAUAAAUCGAUCC | no binding | –
AU-rich DNA/RNA hybrid (DNA:RNA) RNA: GGAUCCAUUUAUUUAUUUAUUUAAGCUUGG DNA: CCTAGGTTAAATAAATAAATAAATCGATCC | no binding | –
